In paper PMC9168731:

Assays:
[1] = biological target: S. pombe Arp2/3 complex (S. pombe) (UniProt Q9UUJ1)
[2] = biological target: S. pombe Arp2/3 complex (S. pombe) (UniProt Q9UUJ1); remark: listed apart in the source

Sequence of UniProt Q9UUJ1 (Q9UUJ1 whole entry, looked up, one chain of several): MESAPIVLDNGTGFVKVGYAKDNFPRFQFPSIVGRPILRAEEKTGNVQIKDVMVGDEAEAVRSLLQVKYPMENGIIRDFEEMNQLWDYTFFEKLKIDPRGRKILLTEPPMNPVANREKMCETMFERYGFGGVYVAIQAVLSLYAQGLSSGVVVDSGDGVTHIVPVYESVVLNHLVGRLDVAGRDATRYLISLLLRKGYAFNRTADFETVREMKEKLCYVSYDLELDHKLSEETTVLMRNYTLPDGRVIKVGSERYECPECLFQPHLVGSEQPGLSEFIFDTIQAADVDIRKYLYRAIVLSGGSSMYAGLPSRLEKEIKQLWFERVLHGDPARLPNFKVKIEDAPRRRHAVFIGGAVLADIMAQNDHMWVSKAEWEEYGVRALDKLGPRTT

Row | Substance | maximum polymerization rate, pyrene actin polymerization assay (3 μM 15% pyrene-labeled actin, 50 nM SpArp2/3 complex, 5 μM Dip1); 2.8 nM/s for reactions without Dip1 [1] [nM/s] | activation of Arp2/3 complex, pyrene actin polymerization assay (3 μM 15% pyrene-labeled actin, 50 nM SpArp2/3 complex, 5 μM Dip1) (% reduction compared to WT Dip1) [2]
1 | Schizosaccharomyces pombe WDS protein Dip1, WT (from UniProt O74771 1-374) (natural protein) | 20 | 
2 | Dip1(N292K) (from UniProt O74771 1-374) (natural protein) | 8 | 
3 | Dip1(R301E) (from UniProt O74771 1-374) (natural protein) |  | > 60
